System: Notch1, overexpressed in 293T cells

“Adamts1, V5 tagged, overexpressed in 293T cells” was tested, and the “S2 cleavage of Notch1” value was “Adamts1 blocks S2 cleavage of Notch1”.
